# Measured values as given in patent US20160304615A1 (Regeneron, published 2016).
# T1: C-terminal biotin-labeled EGFR311-326 peptide (human, biotin at the C-terminus)
# T1 peptide: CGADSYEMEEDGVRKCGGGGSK
# B1: H1H1863N2(Fuc-) (antibody, human IgG1, V domains shown)
# VH: EVQLVESGGGLVQPGGSLRLSCAASGFPFSSYDMHWVRQATGKGLEWVSAIGTAGATYYPGSVKGRFTISRENAKNSLYLQMNSLRAGDTAVYYCARGDYVWGTYRPLFDYWGQGTLVTVSS
# VL: DIQLTQSPSFLSASVGDRVTITCWASQGINNYLAWYQQKPGKAPKLLIYAASTLQTGVPSRFSGSGSGTEFTLTISSLQPEDFATYYCQQLNSYPLTFGGGTKVEIK
# notes: Human IgG1; also called H1H1863N2 with reduced fucosylation; H1H1862N2 (Fuc-)
# How the values were obtained:
# EGFRvIII-mFc = target: T2, EGFRvIII-mFc (human); assay: SPR 37C, receptor-capture
# T2 construct: Soluble dimeric protein
# Protocol: Measurements were conducted on a T100 BIACORE™ instrument. […] In the receptor-capture format, either EGFRvIII-mFc or EGFR-mFc, was captured on the BIACORE™ chip and the respective antibodies flowed over. Kinetic association (kₐ) and dissociation (kd) rate constants were determined by processing and fitting the data to a 1:1 binding model using Scrubber 2.0 curve fitting software. Binding dissociation equilibrium constants (KD) and dissociative half-lives (t_{1/2}) were calculated from the kinetic rate constants as: KD (M)=kd/kₐ; and t₁₁₂ (min)=ln2/(60*kd).
# [1] = target: T1, C-terminal biotin-labeled EGFR311-326 …; assay: BLI (Octet RED), biotinylated peptide on streptavidin tips
# Protocol: After peptide capture, the coated tips were placed in 1 μM solutions of antibody and the binding responses were recorded (see FIG. 2). Controls I-III are the same as those described above.
binder,measurement,setting,value
B1,T½,EGFRvIII-mFc,54 min
same,binding result,[1],no binding (tested: 1 µM)
